Results on nine molecules are retold here after patent US20240400677A1 (ELECTRA THERAPEUTICS, published 2024).

Residue numbers refer to the chain shown, from its start. Where only a bound is given, the exact number is not on record here.

Experiment [1] concerns the target T1, cynomolgus monkey SIRPα on CHO cells (cynomolgus monkey, UniProt A0A2K5VYQ9 31-507).
T1 construct: whole, on cells; also called Cyno SIRPα CHO
T1 sequence: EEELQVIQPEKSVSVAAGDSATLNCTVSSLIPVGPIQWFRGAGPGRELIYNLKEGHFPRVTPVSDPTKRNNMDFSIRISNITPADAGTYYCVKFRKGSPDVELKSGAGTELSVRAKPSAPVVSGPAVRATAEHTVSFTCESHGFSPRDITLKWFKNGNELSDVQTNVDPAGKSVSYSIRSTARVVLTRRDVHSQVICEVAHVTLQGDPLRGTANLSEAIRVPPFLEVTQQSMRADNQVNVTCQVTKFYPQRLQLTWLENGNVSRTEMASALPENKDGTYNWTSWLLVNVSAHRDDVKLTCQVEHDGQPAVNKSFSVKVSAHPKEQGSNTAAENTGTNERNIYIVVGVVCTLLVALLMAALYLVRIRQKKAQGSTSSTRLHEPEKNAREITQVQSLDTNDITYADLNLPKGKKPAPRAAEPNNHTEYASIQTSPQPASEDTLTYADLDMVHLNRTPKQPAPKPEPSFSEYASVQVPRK
Briefly: flow cytometry. (In general: A flow cytometer gives signals particle by particle.)

In experiment [2] the target is T2, human SIRPβ1 on CHO cells (co-transfected with DAP12) (human, UniProt O00241 30-398).
T2 construct: whole, on cells; co-transfected with DAP12; also called Human SIRPβ1 CHO
T2 sequence (O00241 30-398): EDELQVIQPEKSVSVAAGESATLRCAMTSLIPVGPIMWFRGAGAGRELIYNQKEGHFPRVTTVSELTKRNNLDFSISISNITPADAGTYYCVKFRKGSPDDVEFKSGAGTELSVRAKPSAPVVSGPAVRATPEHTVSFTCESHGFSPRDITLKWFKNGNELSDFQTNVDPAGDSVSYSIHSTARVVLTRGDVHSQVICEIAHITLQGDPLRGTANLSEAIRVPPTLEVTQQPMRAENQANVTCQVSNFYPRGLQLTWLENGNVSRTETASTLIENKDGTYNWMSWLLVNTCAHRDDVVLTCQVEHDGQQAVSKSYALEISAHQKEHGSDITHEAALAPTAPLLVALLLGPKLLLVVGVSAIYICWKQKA
Briefly: flow cytometry.

Experiment [3] concerns the target T3, cynomolgus monkey SIRPγ on CHO cells (cynomolgus monkey, UniProt Q9P1W8 29-386 (human entry)).
T3 construct: also called Cyno SIRPγ CHO
T3 chain: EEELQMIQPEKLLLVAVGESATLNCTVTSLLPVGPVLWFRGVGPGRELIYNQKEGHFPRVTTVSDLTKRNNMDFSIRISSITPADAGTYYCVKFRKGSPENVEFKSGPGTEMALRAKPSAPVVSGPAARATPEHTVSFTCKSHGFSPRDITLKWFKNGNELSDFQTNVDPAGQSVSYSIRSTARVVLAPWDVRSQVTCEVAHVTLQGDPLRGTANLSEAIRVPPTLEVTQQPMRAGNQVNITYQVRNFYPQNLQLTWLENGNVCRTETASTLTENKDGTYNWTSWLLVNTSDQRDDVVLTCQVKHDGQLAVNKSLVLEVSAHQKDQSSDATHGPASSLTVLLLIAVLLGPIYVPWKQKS
Briefly: flow cytometry, myc-scFv PPE. In short, it runs like this: (§1)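 Antibodies are titrated onto CHO cells stably expressing the SIRP protein, then detected with fluorescent anti-human IgG. MFI is plotted against concentration. Crude PPE containing myc-tagged scFv is tested against the same lines and parental CHO-K1, with fold change <2.0 taken as non-binding.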

Experiment [4] addresses T4, human SIRPγ on stably transfected CHO cells (human, UniProt Q9P1W8 29-387).
T4 construct: also called Human SIRPγ CHO
Briefly: flow cytometry, myc-scFv PPE. In short, it runs like this:
as §1

Experiment [5] addresses T5, cynomolgus monkey SIRPγ-His monomer protein (cynomolgus monkey, UniProt Q9P1W8 29-359 (human entry), limits assumed).
T5 construct: also called Cyno SIRPγ; Cyno SIRPγ-His
T5 chain: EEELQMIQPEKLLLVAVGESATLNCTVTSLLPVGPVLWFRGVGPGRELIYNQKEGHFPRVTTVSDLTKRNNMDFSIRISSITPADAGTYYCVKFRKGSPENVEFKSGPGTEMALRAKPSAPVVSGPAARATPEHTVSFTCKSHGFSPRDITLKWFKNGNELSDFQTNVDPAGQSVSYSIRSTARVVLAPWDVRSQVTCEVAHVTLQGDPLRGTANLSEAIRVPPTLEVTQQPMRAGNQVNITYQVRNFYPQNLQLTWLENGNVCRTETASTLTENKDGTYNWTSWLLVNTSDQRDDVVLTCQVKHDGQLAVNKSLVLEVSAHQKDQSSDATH
Briefly: BLI Octet, captured scFv PPE, cyno SIRP. As for the experimental part:
Unique binders were further tested for binding to human SIRPαV1, human SIRPαV2, and human SIRPβ1. Briefly, biotinylated anti-V5 was immobilized onto streptavidin biosensors. Each V5-tagged SIRPγ scFv antibody as crude PPE was captured by the anti-V5 antibody. SIRP-His monomer protein at 500 nM was exposed to the biosensor for binding to SIRP scFv. The biosensors were then exposed to wash buffer to measure off-rate kinetics. The resulting association and dissociation kinetics (kdis) was analyzed. […] Similarly, cross-reactivity to cynomolgus monkey SIRPγ, cynomolgus monkey SIRPα, and cynomolgus monkey SIRPβ1 were tested.
In general terms: In BLI a coated tip is dipped into the sample, and binding shifts an interference pattern.

The target in experiment [6] is T6, human SIRPγ-His monomer protein (human, UniProt Q9P1W8 29-360).
T6 construct: also called hSIRPγ
T6 sequence (Q9P1W8 29-360 limits assumed): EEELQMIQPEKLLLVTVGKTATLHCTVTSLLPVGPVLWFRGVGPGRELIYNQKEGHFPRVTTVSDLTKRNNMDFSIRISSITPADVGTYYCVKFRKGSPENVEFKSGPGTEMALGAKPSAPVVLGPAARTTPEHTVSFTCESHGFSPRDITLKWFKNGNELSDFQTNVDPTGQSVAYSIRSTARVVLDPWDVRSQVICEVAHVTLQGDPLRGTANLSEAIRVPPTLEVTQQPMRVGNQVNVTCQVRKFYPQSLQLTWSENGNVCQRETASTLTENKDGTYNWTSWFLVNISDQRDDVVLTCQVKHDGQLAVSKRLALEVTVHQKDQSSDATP
Description: BLI Octet, V5-scFv PPE captured, SIRP-His 500 nM.

T4 sequence (Q9P1W8 29-387 limits assumed): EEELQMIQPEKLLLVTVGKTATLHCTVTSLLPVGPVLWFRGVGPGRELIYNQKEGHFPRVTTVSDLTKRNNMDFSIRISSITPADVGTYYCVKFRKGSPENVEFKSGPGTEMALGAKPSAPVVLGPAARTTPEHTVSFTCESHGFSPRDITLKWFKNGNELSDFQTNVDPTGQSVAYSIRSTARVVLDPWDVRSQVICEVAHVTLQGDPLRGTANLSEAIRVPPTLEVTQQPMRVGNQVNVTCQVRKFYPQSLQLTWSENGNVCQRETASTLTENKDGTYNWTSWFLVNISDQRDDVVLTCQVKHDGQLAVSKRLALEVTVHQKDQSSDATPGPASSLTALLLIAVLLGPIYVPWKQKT

B1: Antibody 47 (scFv, V domains shown)
VH: QVQLVQSGAEVKKPGASVKVSCKASGYTFTTYGISWVRQAPGQGLEWMGWMDPNSGSTGYAQKFQGRVTMTRDTSTSTVYMELSSLRSEDTAVYYCARGRGNSYYYYYMDVWGKGTTVTVSS
VL: DIQMTQSPSSLSASVGDRVTITCRASQRIGSYLNWYQQKPGKAPKLLIYGASNLQSGVPSRFSGSGSGTDFTLTISSLQPEDFATYYCQQANSFPFTFGPGTKVDIK
notes: scFv in crude PPE, V5/myc-tagged
On to B1, for which the values for the binding result in experiment [1], in experiment [2] and in experiment [5] were “no binding (tested: fold change <2.0)”, “no binding (tested: fold change <2.0)” and “binds”, respectively. Further, the “MFI fold change over parental CHO” value in experiment [3] is 14.2 fold; in experiment [4], 17.3 fold. Besides, the kdis in experiment [6] is more than 0.01 s⁻¹.

B2: Antibody 50 (scFv, V domains shown)
VH: QVQLVQSGAEVKKPGASVKVSCKASGYTFTGYYMHWVRQAPGQGLEWMGTINPSGGSTSYAQKFQGRVTMTRDTSTSTVYMELSSLRSEDTAVYYCVKGNGYYDLWGQGTLVTVSS
VL: DIQMTQSPSSLSASVGDRVTITCRASQSISSWLAWYQQKPGKAPKLLIYDTSNLQGGVPSRFSGSGSGTDFTLTISSLQPEDFATYYCQQYDSFPWTFGQGTKVEIK
notes: as for B1
Consider B2, for which the results for the binding result in experiment [1], in experiment [2] and in experiment [5] were “no binding (tested: fold change <2.0)”, “no binding (tested: fold change <2.0)” and “binds”, respectively. The entries for the “MFI fold change over parental CHO” value in experiment [3] and in experiment [4] were 30.8 fold and 12.8 fold, respectively. This molecule also returned a kdis in experiment [6] of more than 0.01 s⁻¹.

B3: Antibody 49 (scFv, V domains shown)
VH: QVQLVQSGAEVKKPGSSVKVSCKASGGTFSSYAISWVRQAPGQGLEWMGVINPSGGSTSYAQKFQGRVTITADESTSTAYMELSSLRSEDTAVYYCARESRGYYGMDVWGQGTTVTVSS
VL: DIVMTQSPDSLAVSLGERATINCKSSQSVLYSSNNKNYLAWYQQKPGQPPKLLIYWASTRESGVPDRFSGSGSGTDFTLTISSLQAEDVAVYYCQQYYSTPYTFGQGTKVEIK
notes: as for B1
Regarding B3, the values for the binding result in experiment [1], in experiment [2] and in experiment [5] were “no binding (tested: fold change <2.0)”, “no binding (tested: fold change <2.0)” and “binds”, respectively. In addition, the “MFI fold change over parental CHO” value in experiment [3] was 18.3 fold; in experiment [4], 18.6 fold. Besides, the kdis in experiment [6] is more than 0.01 s⁻¹.

B4: Antibody 25 (scFv, V domains shown)
VH: EVQLLESGGGLVQPGGSLRLSCAASGFTVGSWYMSWVRQAPGKGLEWVAHVSDDGSNEFYADSVKGRFTISRDNSKNTLYLQMNSLRAEDTAVYYCARSPGYCSSTSCYRYYGMDVWGQGTTVTVSS
VL: DIQMTQSPSSLSASVGDRVTITCRTSQSIGTYLNWYQQKPGKAPKLLIYDASNLPTGVPSRFSGSGSGTDFTLTISSLQPEDFATYYCQNYNSALFGPGTKVDIK
notes: as for B1
Regarding B4, the binding result in experiment [1] is listed as “no binding (tested: fold change <2.0)”; in experiment [2] it was “no binding (tested: fold change <2.0)”; in experiment [5], “binds”. Further, the “MFI fold change over parental CHO” value in experiment [3] was 10.3 fold; in experiment [4] it was 19.5 fold. The kdis in experiment [6] was in the range of 0.001 to 0.01 s⁻¹.

B5: Antibody 18 (scFv, V domains shown)
VH: QVQLVQSGAEVKKPGASVKVSCKASGYTFTGYYMHWVRQAPGQGLEWMGWMNPNSGNTGYAQKFQGRVTMTRDTSTSTVYMELSSLRSEDTAVYYCARGSGYDAGVFDYWGQGTLVTVSS
VL: DIQMTQSPSSLSASVGDRVTITCRASQGIGNDLAWYQQKPGKAPKLLIYDAKDLHPGVPSRFSGSGSGTDFTLTISSLQPEDFATYYCQQSYSFPRTFGQGTRLEIK
notes: as for B1
For B5, the binding result in experiment [1] was “no binding (tested: fold change <2.0)”; in experiment [2], “no binding (tested: fold change <2.0)”; in experiment [5], “binds”. Also, the “MFI fold change over parental CHO” value in experiment [3] stood at 16.2 fold; in experiment [4], 25.2 fold. Besides, the kdis in experiment [6] was 0.001 to 0.01 s⁻¹.

B6: Antibody 15 (scFv, V domains shown)
VH: QVQLVQSGAEVKKPGASVKVSCKASGYSFTSYGISWVRQAPGQGLEWMGWISPYNGNTNYAQKLQGRVTMTRDTSTSTVYMELSSLRSEDTAVYYCAREAYGDYGDYFDYWGQGTLVTVSS
VL: DIQMTQSPSSLSASVGDRVTITCRASQGVGDRSAWYQQKPGKAPKLLIYDASNLETGVPSRFSGSGSGTDFTLTISSLQPEDFATYYCQQADTFPYTFGQGTKLEIK
notes: as for B1
With B6, the figures for the binding result in experiment [1], in experiment [2] and in experiment [5] were “no binding (tested: fold change <2.0)”, “no binding (tested: fold change <2.0)” and “binds”, respectively. Besides, the “MFI fold change over parental CHO” value amounted to 3.71 fold in experiment [3] and 17 fold in experiment [4]. Further, the kdis in experiment [6] lay within 0.001 to 0.01 s⁻¹.

B7: Antibody 30 (scFv, V domains shown)
VH: QVQLVQSGAEVKKPGASVKVSCKASGYTFTNFDINWVRQAPGQGLEWMGWISAYNGHTNYAQNLQGRVTMTRDTSTSTVYMELSSLRSEDTAVYYCAQEAAAGYFDYWGQGTLVTVSS
VL: B5 VL with G28D, G30R, K52S, D53N, H55E, P56T, S93G, F94T, R96Y, R103K
notes: as for B1
B7: the binding result in experiment [1] is “no binding (tested: fold change <2.0)”; in experiment [2], “no binding (tested: fold change <2.0)”; in experiment [5], “binds”. In addition, the “MFI fold change over parental CHO” value in experiment [3] stood at 3.76 fold; in experiment [4], 5.94 fold. Also, the kdis in experiment [6] lay in the range of 0.001 to 0.01 s⁻¹.

B8: Antibody 10 (scFv, V domains shown)
VH: QVQLVQSGAEVKKPGASVKVSCKASGGTFSNYDISWVRQAPGQGLEWMGMIDPSGGSTSYAQKFQGRVTMTRDTSTSTVYMELSSLRSEDTAVYYCARPYSSGWYYFDYWGQGTLVTVSS
VL: DIQMTQSPSSLSASVGDRVTITCQASQDIHNYLNWYQQKPGKAPKLLIYDASNLETGVPSRFSGSGSGTDFTLTISSLQPEDFATYYCQQSYNTPPTFGQGTRLEIK
notes: as for B1
For the molecule B8, the binding result in experiment [1] is given as “no binding (tested: fold change <2.0)”; in experiment [2], “no binding (tested: fold change <2.0)”; in experiment [5], “binds”. Moreover, the entries for the “MFI fold change over parental CHO” value in experiment [3] and in experiment [4] were 23.1 fold and 38.3 fold, respectively. This molecule also displayed a kdis in experiment [6] of 0.001 to 0.01 s⁻¹.

B9: Antibody 23 (scFv, V domains shown)
VH: QVQLVQSGAEVKKPGASVKVSCKASGGTFSNYDINWVRQAPGQGLEWMGWISAYNGNTNYAQKLQGRVTMTRDTSTSTVYMELSSLRSEDTAVYYCAAEAYGDYSLDPWGQGTLVTVSS
VL: B8 VL with D28G, H30S, N31S, D50A, N53S, E55Q, T56N, N93S, P96I
notes: as for B1
On to B9, for which the values for the binding result in experiment [1], in experiment [2] and in experiment [5] were “no binding (tested: fold change <2.0)”, “no binding (tested: fold change <2.0)” and “binds”, respectively. Besides, the “MFI fold change over parental CHO” value was determined as 16.5 fold in experiment [3] and 21.6 fold in experiment [4]. In experiment [6], this molecule had a kdis of 0.001 to 0.01 s⁻¹.
